# Values quoted from earlier work in patent US20160346224A1, “COMPOSITIONS AND METHODS FOR REDUCING VISUAL LOSS” (Edge Therapeutics, Inc., priority 2015, published 2016).
# No end group written: not given here.
# Tests used:
# [1] = target: T1, R-type calcium current in the neurohypophysial nerve endings (Rattus norvegicus, UniProt Q07652); conditions: at 40 nM concentration
# T1 construct: R-type calcium current in the neurohypophysial nerve endings at 40 nM concentration; host or cells: neurohypophysial nerve endings (native tissue preparation)
# T1 sequence (Q07652 whole entry): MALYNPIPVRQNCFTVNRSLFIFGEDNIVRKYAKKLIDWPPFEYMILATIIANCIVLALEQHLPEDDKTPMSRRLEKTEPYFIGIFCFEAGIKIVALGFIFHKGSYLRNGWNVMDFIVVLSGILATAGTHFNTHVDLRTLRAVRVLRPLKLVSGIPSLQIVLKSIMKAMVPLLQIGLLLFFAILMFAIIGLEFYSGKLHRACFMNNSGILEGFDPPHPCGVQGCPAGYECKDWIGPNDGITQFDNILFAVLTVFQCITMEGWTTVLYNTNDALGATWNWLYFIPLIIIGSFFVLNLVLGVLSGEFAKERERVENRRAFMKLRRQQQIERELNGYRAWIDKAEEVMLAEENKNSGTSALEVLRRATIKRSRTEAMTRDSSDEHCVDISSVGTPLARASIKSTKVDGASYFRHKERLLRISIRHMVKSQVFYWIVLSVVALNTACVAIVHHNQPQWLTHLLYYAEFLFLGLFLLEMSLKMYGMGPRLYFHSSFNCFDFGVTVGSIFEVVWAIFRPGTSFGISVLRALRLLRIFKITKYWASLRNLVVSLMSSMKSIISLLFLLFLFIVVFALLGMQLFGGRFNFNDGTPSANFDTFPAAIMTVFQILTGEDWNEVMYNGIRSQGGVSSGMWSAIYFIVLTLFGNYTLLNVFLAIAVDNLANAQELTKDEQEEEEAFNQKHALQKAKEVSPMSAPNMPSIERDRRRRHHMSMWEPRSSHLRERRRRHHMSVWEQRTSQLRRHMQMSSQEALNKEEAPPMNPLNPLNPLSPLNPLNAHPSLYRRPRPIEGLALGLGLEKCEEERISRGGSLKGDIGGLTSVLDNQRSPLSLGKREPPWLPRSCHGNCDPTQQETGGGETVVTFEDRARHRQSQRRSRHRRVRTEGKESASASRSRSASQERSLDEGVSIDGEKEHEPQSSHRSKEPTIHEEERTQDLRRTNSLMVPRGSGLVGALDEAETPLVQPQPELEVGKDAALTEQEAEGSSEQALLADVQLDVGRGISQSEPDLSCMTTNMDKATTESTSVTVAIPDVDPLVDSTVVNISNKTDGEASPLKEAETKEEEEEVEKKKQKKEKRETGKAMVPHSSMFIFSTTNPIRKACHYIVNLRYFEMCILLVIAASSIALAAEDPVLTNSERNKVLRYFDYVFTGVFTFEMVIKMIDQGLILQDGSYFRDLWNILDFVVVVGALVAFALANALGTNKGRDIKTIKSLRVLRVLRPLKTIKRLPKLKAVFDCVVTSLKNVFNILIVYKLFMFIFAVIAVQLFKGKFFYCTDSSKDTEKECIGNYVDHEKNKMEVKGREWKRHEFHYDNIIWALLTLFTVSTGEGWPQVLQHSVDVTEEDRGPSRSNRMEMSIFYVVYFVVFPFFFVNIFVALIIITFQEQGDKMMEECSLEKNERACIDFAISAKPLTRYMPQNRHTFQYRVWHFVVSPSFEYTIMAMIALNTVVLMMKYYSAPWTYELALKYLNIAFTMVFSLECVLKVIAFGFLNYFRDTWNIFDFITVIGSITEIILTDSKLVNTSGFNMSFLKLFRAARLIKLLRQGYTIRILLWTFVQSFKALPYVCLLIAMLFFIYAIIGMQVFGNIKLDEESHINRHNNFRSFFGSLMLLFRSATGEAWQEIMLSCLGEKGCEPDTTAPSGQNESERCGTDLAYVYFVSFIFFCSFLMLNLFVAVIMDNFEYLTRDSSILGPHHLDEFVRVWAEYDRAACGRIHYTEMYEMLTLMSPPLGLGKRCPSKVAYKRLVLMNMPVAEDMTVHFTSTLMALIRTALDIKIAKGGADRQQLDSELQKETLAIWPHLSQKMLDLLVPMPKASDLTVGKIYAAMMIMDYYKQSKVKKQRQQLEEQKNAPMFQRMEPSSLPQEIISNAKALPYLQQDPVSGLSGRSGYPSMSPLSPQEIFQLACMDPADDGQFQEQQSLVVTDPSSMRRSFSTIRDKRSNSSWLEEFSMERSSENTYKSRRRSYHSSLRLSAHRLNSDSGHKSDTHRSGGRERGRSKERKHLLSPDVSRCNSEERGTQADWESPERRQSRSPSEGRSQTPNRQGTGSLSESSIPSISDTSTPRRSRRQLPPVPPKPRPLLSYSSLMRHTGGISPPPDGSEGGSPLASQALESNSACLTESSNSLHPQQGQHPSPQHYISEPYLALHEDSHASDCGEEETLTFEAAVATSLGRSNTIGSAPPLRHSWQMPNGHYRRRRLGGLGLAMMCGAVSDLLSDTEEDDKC
# [2] = tested on: K+ and Na+ currents, and L, P/Q and T-type calcium currents
# N-type calcium current = N-type calcium current (Homo sapiens, UniProt Q00975); conditions: at 300 nM to 500 nM
# N-type calcium current, sequence (Q00975 whole entry): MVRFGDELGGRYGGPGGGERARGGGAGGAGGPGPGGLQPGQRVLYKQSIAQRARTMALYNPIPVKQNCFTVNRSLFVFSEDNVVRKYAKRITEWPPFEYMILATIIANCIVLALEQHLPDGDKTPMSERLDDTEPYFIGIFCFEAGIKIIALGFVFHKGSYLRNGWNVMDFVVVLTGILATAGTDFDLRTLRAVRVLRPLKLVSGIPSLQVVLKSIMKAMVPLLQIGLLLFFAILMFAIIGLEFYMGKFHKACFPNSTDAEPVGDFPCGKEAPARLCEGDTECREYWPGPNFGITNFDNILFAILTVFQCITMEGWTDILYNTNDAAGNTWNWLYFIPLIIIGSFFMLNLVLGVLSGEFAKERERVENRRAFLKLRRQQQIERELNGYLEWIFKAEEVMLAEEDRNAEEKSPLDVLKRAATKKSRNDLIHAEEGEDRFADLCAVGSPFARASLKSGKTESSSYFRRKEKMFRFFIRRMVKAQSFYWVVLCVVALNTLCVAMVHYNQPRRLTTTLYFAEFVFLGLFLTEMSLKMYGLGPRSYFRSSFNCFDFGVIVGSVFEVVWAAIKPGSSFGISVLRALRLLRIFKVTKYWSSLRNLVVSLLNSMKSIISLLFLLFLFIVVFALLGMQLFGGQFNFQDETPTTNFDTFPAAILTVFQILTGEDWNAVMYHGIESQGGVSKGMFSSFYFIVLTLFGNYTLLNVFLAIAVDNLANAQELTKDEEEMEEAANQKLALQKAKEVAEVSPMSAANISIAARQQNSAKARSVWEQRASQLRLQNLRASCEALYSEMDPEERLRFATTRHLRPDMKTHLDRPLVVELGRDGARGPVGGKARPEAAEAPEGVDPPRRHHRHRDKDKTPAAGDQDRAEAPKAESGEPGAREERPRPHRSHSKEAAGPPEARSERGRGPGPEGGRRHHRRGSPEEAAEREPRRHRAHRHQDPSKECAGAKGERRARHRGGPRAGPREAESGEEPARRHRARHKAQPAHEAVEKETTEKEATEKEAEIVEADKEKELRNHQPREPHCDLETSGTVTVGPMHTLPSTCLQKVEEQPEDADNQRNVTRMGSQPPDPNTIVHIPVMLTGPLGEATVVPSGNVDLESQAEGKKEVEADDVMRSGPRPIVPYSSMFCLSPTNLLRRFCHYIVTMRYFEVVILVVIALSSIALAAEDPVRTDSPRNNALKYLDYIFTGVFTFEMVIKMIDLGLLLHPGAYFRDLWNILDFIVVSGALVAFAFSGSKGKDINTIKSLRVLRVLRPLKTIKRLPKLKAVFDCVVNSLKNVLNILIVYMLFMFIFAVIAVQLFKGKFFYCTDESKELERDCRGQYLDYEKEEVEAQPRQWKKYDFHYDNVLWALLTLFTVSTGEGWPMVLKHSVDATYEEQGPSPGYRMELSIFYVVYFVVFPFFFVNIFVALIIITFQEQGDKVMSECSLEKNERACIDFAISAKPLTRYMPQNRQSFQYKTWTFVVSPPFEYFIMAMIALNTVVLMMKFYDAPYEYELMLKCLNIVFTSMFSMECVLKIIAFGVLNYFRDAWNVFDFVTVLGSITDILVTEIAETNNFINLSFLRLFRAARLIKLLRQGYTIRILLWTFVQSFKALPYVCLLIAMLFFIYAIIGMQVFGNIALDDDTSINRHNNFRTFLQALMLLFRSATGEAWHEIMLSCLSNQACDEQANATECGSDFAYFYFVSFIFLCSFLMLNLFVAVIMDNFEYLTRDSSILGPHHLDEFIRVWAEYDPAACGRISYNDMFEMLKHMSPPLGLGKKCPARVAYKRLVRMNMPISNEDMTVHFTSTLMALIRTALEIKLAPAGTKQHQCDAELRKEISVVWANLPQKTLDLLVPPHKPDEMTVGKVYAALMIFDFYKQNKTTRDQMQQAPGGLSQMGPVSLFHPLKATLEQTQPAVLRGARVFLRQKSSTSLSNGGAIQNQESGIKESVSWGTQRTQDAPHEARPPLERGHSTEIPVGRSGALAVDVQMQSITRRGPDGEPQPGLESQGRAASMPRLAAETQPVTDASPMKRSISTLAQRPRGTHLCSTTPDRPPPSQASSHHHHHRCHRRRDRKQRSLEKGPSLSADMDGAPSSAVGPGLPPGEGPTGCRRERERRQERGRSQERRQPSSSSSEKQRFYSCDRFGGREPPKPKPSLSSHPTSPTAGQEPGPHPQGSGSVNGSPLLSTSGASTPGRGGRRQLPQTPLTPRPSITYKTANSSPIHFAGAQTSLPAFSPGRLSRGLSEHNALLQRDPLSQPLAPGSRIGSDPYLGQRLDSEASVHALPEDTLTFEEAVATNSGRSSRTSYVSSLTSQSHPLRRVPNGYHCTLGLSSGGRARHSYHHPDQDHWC
# [3] = tested on: R-type current in preparations of the neuronal cell body, retinal ganglion cells and hippocampal pyramidal cells
substance,measurement,setting,value
"SNX-482: toxin from the tarantula Hysterocrates gigas, a 41 amino acid residue peptide with 3 disulfide linkages; putative R-type selective antagonist (GVDKAGCRYMFGGCSVNDDCCPRLGCHSLFSYCAWDLTFSD; disulfide (positions not given here); also: 3 disulfide linkages, pairings not given here; UniProt P56854 1-41, looked up)",block of R-type calcium current,[1],blocks
same,"effect on K+ and Na+ currents, and L, P/Q and T-type calcium currents",[2],no effect
same,block of N-type calcium current,N-type calcium current,30-50%
same,effect on R-type current,[3],no significant effect
